Test results reported in publication PMC9923923 (2023).

What was measured:
[1] = biological target: TLR4 (Homo sapiens, UniProt O00206); assay: SPR
[2] = biological target: TLR4/MD2 complex (Homo sapiens, UniProt O00206); assay: SPR
Chain of TLR4/MD2 complex (O00206 24-839, chain 1 of 2): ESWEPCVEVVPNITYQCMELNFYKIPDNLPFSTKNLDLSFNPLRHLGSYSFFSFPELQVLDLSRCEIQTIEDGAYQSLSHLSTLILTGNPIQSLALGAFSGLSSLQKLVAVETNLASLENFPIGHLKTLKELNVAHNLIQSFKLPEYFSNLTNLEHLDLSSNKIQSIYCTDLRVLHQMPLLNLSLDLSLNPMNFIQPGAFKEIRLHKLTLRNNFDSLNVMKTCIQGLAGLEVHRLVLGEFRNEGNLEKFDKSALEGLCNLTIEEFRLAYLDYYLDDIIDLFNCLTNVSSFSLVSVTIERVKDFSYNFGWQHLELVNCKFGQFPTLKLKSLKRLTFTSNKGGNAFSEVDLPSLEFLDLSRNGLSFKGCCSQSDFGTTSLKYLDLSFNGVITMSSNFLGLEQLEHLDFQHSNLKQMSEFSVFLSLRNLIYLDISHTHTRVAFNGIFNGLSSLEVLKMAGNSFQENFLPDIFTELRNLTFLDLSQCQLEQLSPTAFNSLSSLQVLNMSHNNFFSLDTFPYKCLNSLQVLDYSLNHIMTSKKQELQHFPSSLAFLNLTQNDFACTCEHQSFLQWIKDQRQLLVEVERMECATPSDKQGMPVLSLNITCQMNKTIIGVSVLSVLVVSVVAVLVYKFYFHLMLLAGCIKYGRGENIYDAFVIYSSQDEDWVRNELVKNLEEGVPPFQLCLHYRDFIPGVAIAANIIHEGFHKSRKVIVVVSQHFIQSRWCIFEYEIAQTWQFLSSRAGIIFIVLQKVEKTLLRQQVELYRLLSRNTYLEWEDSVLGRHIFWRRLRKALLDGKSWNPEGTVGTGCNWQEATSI
Chain of TLR4/MD2 complex (chain, as listed by the source, chain 2 of 2): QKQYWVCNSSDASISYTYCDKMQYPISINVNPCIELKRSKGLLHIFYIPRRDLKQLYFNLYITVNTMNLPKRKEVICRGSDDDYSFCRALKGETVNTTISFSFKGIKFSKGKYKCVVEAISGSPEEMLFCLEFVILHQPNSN

Chain of TLR4 (O00206 24-839): as the sequence (O00206 24-839, chain 1 of 2) above

| Binder | Kd [1] [nM] | Kd [2] [nM] |
| --- | --- | --- |
| eCIRP (protein, 5 nM PS-OMe miR130 (value in text)) MASDEGKLFVGGLSFDTNEQALEQVFSKYGQISEVVVVKDRETQRSRGFGFVTFENIDDAKDAMMAMNGKSVDGRQIRVDQAGKSSDNRSRGYRGGSAGGRGFFRGGRSRGRGFSRGGGDRGYGGGRFESRSGGYGGSRDYYASRSQGGSYGYRSSGGSYRDSYDSYATHNE | 612 | – |
| eCIRP (protein) MASDEGKLFVGGLSFDTNEQALEQVFSKYGQISEVVVVKDRETQRSRGFGFVTFENIDDAKDAMMAMNGKSVDGRQIRVDQAGKSSDNRSRGYRGGSAGGRGFFRGGRSRGRGFSRGGGDRGYGGGRFESRSGGYGGSRDYYASRSQGGSYGYRSSGGSYRDSYDSYATHNE | 69.7 | 20 |

Second part, the binder after the results:

| Kd [1] [nM] | Kd [2] [nM] | Binder |
| --- | --- | --- |
| – | 113 | eCIRP (protein, 5 nM PS-OMe miR130) MASDEGKLFVGGLSFDTNEQALEQVFSKYGQISEVVVVKDRETQRSRGFGFVTFENIDDAKDAMMAMNGKSVDGRQIRVDQAGKSSDNRSRGYRGGSAGGRGFFRGGRSRGRGFSRGGGDRGYGGGRFESRSGGYGGSRDYYASRSQGGSYGYRSSGGSYRDSYDSYATHNE |
| 139 | – | eCIRP (protein, 5 nM PS-OMe miR130 (value in legend)) MASDEGKLFVGGLSFDTNEQALEQVFSKYGQISEVVVVKDRETQRSRGFGFVTFENIDDAKDAMMAMNGKSVDGRQIRVDQAGKSSDNRSRGYRGGSAGGRGFFRGGRSRGRGFSRGGGDRGYGGGRFESRSGGYGGSRDYYASRSQGGSYGYRSSGGSYRDSYDSYATHNE |
